From article PMC10629212, “Active Site Loop Engineering Abolishes Water Capture in Hydroxylating Sesquiterpene Synthases” (ACS Catalysis, 2023)

substrate: CC(C)=CCC/C(C)=C/CC/C(C)=C/CO[P@@](=O)(O)OP(=O)(O)O; test: steady-state kinetics of sesquiterpene formation (details in Supporting Information); type: biochemical, Pogostemon cablin; details: Mg2+-dependent enzyme; conditions in Supporting Information
Source text: steady-state kinetics of sesquiterpene formation (details in Supporting Information) on PTS (patchoulol synthase)

Row | Protein | Km [µM]
1 | PTS (patchoulol synthase) (Pogostemon cablin; E461S/K458R/K459R/R460G) (protein, recombinant purified; construct details only in Supporting Information) MELYAQSVGVGAASRPLANFHPCVWGDKFIVYNPQSCQAGEREEAEELKVELKRELKEASDNYMRQLKMVDAIQRLGIDYLFVEDVDEALKNLFEMFDAFCKNNHDMHATALSFRLLRQHGYRVSCEVFEKFKDGKDGFKVPNEDGAVAVLEFFEATHLRVHGEDVLDNAFDFTRNYLESVYATLNDPTAKQVHNALNEFSFRRGLPRVEARKYISIYEQYASHHKGLLKLAKLDFNLVQALHRRELSEDSRWWKTLQVPTKLSFVRDRLVESYFWASGSYFEPNYSVARMILAKGLAVLSLMDDVYDAYGTFEELQMFTDAIERWDASCLDKLPDYMKIVYKALLDVFEEVDEELIKLGAPYRAYYGKEAMKYAARAYMEEAQWREQKHKPTTKEYMKLATKTCGYITLIILSCLGVEEGIVTKEAFDWVFSRPPFIEATLIIARLVNDITGHEFERRGSHVRTAVECYMEEHKVGKQEVVSEFYNQMESAWKDINEGFLRPVEFPIPLLYLILNSVRTLEVIYKEGDSYTHVGPAMQNIIKQLYLHPVPY | 1.54 ± 0.16
2 | PTS (patchoulol synthase) (Pogostemon cablin; Y525F) (protein, recombinant purified; construct details only in Supporting Information) MELYAQSVGVGAASRPLANFHPCVWGDKFIVYNPQSCQAGEREEAEELKVELKRELKEASDNYMRQLKMVDAIQRLGIDYLFVEDVDEALKNLFEMFDAFCKNNHDMHATALSFRLLRQHGYRVSCEVFEKFKDGKDGFKVPNEDGAVAVLEFFEATHLRVHGEDVLDNAFDFTRNYLESVYATLNDPTAKQVHNALNEFSFRRGLPRVEARKYISIYEQYASHHKGLLKLAKLDFNLVQALHRRELSEDSRWWKTLQVPTKLSFVRDRLVESYFWASGSYFEPNYSVARMILAKGLAVLSLMDDVYDAYGTFEELQMFTDAIERWDASCLDKLPDYMKIVYKALLDVFEEVDEELIKLGAPYRAYYGKEAMKYAARAYMEEAQWREQKHKPTTKEYMKLATKTCGYITLIILSCLGVEEGIVTKEAFDWVFSRPPFIEATLIIARLVNDITGHEFEKKREHVRTAVECYMEEHKVGKQEVVSEFYNQMESAWKDINEGFLRPVEFPIPLLYLILNSVRTLEVIFKEGDSYTHVGPAMQNIIKQLYLHPVPY | 4.8 ± 1.26
3 | PTS (patchoulol synthase) (Pogostemon cablin) (protein, recombinant purified; construct details only in Supporting Information) MELYAQSVGVGAASRPLANFHPCVWGDKFIVYNPQSCQAGEREEAEELKVELKRELKEASDNYMRQLKMVDAIQRLGIDYLFVEDVDEALKNLFEMFDAFCKNNHDMHATALSFRLLRQHGYRVSCEVFEKFKDGKDGFKVPNEDGAVAVLEFFEATHLRVHGEDVLDNAFDFTRNYLESVYATLNDPTAKQVHNALNEFSFRRGLPRVEARKYISIYEQYASHHKGLLKLAKLDFNLVQALHRRELSEDSRWWKTLQVPTKLSFVRDRLVESYFWASGSYFEPNYSVARMILAKGLAVLSLMDDVYDAYGTFEELQMFTDAIERWDASCLDKLPDYMKIVYKALLDVFEEVDEELIKLGAPYRAYYGKEAMKYAARAYMEEAQWREQKHKPTTKEYMKLATKTCGYITLIILSCLGVEEGIVTKEAFDWVFSRPPFIEATLIIARLVNDITGHEFEKKREHVRTAVECYMEEHKVGKQEVVSEFYNQMESAWKDINEGFLRPVEFPIPLLYLILNSVRTLEVIYKEGDSYTHVGPAMQNIIKQLYLHPVPY | 0.68 ± 0.14
4 | PTS (patchoulol synthase) (Pogostemon cablin; Y525A) (protein, recombinant purified; construct details only in Supporting Information) MELYAQSVGVGAASRPLANFHPCVWGDKFIVYNPQSCQAGEREEAEELKVELKRELKEASDNYMRQLKMVDAIQRLGIDYLFVEDVDEALKNLFEMFDAFCKNNHDMHATALSFRLLRQHGYRVSCEVFEKFKDGKDGFKVPNEDGAVAVLEFFEATHLRVHGEDVLDNAFDFTRNYLESVYATLNDPTAKQVHNALNEFSFRRGLPRVEARKYISIYEQYASHHKGLLKLAKLDFNLVQALHRRELSEDSRWWKTLQVPTKLSFVRDRLVESYFWASGSYFEPNYSVARMILAKGLAVLSLMDDVYDAYGTFEELQMFTDAIERWDASCLDKLPDYMKIVYKALLDVFEEVDEELIKLGAPYRAYYGKEAMKYAARAYMEEAQWREQKHKPTTKEYMKLATKTCGYITLIILSCLGVEEGIVTKEAFDWVFSRPPFIEATLIIARLVNDITGHEFEKKREHVRTAVECYMEEHKVGKQEVVSEFYNQMESAWKDINEGFLRPVEFPIPLLYLILNSVRTLEVIAKEGDSYTHVGPAMQNIIKQLYLHPVPY | 5.27 ± 1.22
5 | PTS (patchoulol synthase) (Pogostemon cablin; C405A) (protein, recombinant purified; construct details only in Supporting Information) MELYAQSVGVGAASRPLANFHPCVWGDKFIVYNPQSCQAGEREEAEELKVELKRELKEASDNYMRQLKMVDAIQRLGIDYLFVEDVDEALKNLFEMFDAFCKNNHDMHATALSFRLLRQHGYRVSCEVFEKFKDGKDGFKVPNEDGAVAVLEFFEATHLRVHGEDVLDNAFDFTRNYLESVYATLNDPTAKQVHNALNEFSFRRGLPRVEARKYISIYEQYASHHKGLLKLAKLDFNLVQALHRRELSEDSRWWKTLQVPTKLSFVRDRLVESYFWASGSYFEPNYSVARMILAKGLAVLSLMDDVYDAYGTFEELQMFTDAIERWDASCLDKLPDYMKIVYKALLDVFEEVDEELIKLGAPYRAYYGKEAMKYAARAYMEEAQWREQKHKPTTKEYMKLATKTAGYITLIILSCLGVEEGIVTKEAFDWVFSRPPFIEATLIIARLVNDITGHEFEKKREHVRTAVECYMEEHKVGKQEVVSEFYNQMESAWKDINEGFLRPVEFPIPLLYLILNSVRTLEVIYKEGDSYTHVGPAMQNIIKQLYLHPVPY | 0.67 ± 0.09
6 | PTS (patchoulol synthase) (Pogostemon cablin; Y531F) (protein, recombinant purified; construct details only in Supporting Information) MELYAQSVGVGAASRPLANFHPCVWGDKFIVYNPQSCQAGEREEAEELKVELKRELKEASDNYMRQLKMVDAIQRLGIDYLFVEDVDEALKNLFEMFDAFCKNNHDMHATALSFRLLRQHGYRVSCEVFEKFKDGKDGFKVPNEDGAVAVLEFFEATHLRVHGEDVLDNAFDFTRNYLESVYATLNDPTAKQVHNALNEFSFRRGLPRVEARKYISIYEQYASHHKGLLKLAKLDFNLVQALHRRELSEDSRWWKTLQVPTKLSFVRDRLVESYFWASGSYFEPNYSVARMILAKGLAVLSLMDDVYDAYGTFEELQMFTDAIERWDASCLDKLPDYMKIVYKALLDVFEEVDEELIKLGAPYRAYYGKEAMKYAARAYMEEAQWREQKHKPTTKEYMKLATKTCGYITLIILSCLGVEEGIVTKEAFDWVFSRPPFIEATLIIARLVNDITGHEFEKKREHVRTAVECYMEEHKVGKQEVVSEFYNQMESAWKDINEGFLRPVEFPIPLLYLILNSVRTLEVIYKEGDSFTHVGPAMQNIIKQLYLHPVPY | 0.37 ± 0.09

substrate: CC(C)=CCC/C(C)=C/CC/C(C)=C/CO[P@@](=O)(O)OP(=O)(O)O; test: as above; type: biochemical, Streptomyces coelicolor; details: Mg2+-dependent enzyme; conditions in Supporting Information; remark: another data set of the same source
Source text: steady-state kinetics of sesquiterpene formation (details in Supporting Information) on Gd11olS (germacradiene-11-ol synthase)

Row | Protein | Km [µM]
7 | Gd11olS (germacradiene-11-ol synthase) (Streptomyces coelicolor A3(2)) (protein, likely N-terminal germacradienol synthase domain of the bifunctional geosmin synthase (as in PDB 5DZ2); recombinant purified) MTQQPFQLPHFYLPHPARLNPHLDEARAHSTTWAREMGMLEGSGVWEQSDLEAHDYGLLCAYTHPDCDGPALSLITDWYVWVFFFDDHFLEKYKRSQDRLAGKAHLDRLPLFMPLDDAAGMPEPRNPVEAGLADLWTRTVPAMSADWRRRFAVATEHLLNESMWELSNINEGRVANPVEYIEMRRKVGGAPWSAGLVEYATAEVPAAVAGTRPLRVLMETFSDAVHLRNDLFSYQREVEDEGELSNGVLVLETFFGCTTQEAADLVNDVLTSRLHQFEHTAFTEVPAVALEKGLTPLEVAAVGAYTKGLQDWQSGGHEWHMRSSRYMNKGERPLAGWQ | 0.45 ± 0.08
8 | Gd11olS (germacradiene-11-ol synthase) (Streptomyces coelicolor A3(2); D240G/E239R/E241S/V238R) (protein, likely N-terminal germacradienol synthase domain of the bifunctional geosmin synthase (as in PDB 5DZ2); recombinant purified) MTQQPFQLPHFYLPHPARLNPHLDEARAHSTTWAREMGMLEGSGVWEQSDLEAHDYGLLCAYTHPDCDGPALSLITDWYVWVFFFDDHFLEKYKRSQDRLAGKAHLDRLPLFMPLDDAAGMPEPRNPVEAGLADLWTRTVPAMSADWRRRFAVATEHLLNESMWELSNINEGRVANPVEYIEMRRKVGGAPWSAGLVEYATAEVPAAVAGTRPLRVLMETFSDAVHLRNDLFSYQRERRGSGELSNGVLVLETFFGCTTQEAADLVNDVLTSRLHQFEHTAFTEVPAVALEKGLTPLEVAAVGAYTKGLQDWQSGGHEWHMRSSRYMNKGERPLAGWQ | 6.02 ± 1.25
